We go through five molecules from publication PMC5519985 (Nature Communications, 2017).

One assay concerns the target IL-13Rα1 (Homo sapiens) (UniProt P78552). The conditions noted are these: cited from earlier work.
Assay [1] addresses SNAPf-IL-13Rα1-TM (IL-13Rα1 truncated after the transmembrane domain). As to the kind of experiment: single molecule co-localization and co-tracking (dual-colour TIRF microscopy); ^DY547IL-4Rα-TM and ^DY647IL-13Rα1-TM reconstituted into polymer-supported membranes (PSM); ligand from 10 pM up to 50 μM, 5 min equilibration; equilibrium model fitted to the dimerization curves.
In the next assay the target is HaloTag-IL-13Rα1 (UniProt P78552). As to the kind of experiment: particle image cross-correlation (PICCS) of single molecule localizations on live cells; HeLa cells co-expressing ^DY647IL-4Rα and ^TMRIL-13Rα1, without and with ligand; correlated fraction α; effective 2D constant by the law of mass action from α and the surface concentrations corrected for the degree of labelling.

The target of the next assay is IL-4Rα (Homo sapiens) (UniProt P24394). The settings on record: cited from earlier work.
In assay [2] the target is T1, IL-4Rα-EC/IL-4D binary complex on the SSM (UniProt P05112 25-153; P24394 26-232, H59Y | K84D, CoA-ATTO 488 on the ybbR-tag).
T1 construct: interleukin-4; IL-4Rα, ectodomain; Chains as m2 and m10; source: formed on the solid-supported membrane from m2 and m10; not shown: ybbR-tag, N-terminal, kept; His10, C-terminal, kept
T1 sequence (looked up) 1: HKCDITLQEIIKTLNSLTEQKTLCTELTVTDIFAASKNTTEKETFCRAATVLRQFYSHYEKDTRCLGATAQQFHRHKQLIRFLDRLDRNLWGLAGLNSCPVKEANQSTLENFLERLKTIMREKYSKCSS
T1 sequence (looked up) 2: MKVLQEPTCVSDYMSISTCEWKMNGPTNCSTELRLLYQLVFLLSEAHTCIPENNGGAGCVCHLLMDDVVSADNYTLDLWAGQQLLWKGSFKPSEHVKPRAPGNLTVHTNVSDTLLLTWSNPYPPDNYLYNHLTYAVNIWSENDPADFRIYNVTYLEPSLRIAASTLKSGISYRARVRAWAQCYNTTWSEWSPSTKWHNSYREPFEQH
Description: TIRFS-RIf (total internal reflection fluorescence spectroscopy with reflectance interference); SSM with IL-4Rα-EC and IL-13Rα1-EC; dissociation of ^AT488IL-4D while free IL-13Rα1-EC is blocked by injection of IL-13 (Supplementary Fig. 7). The settings on record: both partners purified.

IL-4 (from UniProt P05112): the Kd in the assay with IL-13Rα1 (Homo sapiens) was 2500 nM.
“IL-4/^DY547IL-4Rα-TM binary complex in the PSM (from UniProt P05112 25-153)” gave a 2D equilibrium dissociation constant (molecules μm^−2) in assay [1] of 1.6.
In the assay with HaloTag-IL-13Rα1, “IL-4/^DY647IL-4Rα binary complex in the plasma membrane of HeLa cells (from UniProt P05112 25-153; P24394 26-825)” showed a correlated fraction α (PICCS) of 11% and an effective 2D equilibrium dissociation constant (molecules μm^−2) of 0.1.
With “IL-13/IL-13Rα1-EC complex (from UniProt P35225)”, the Kd in the assay with IL-4Rα (Homo sapiens) was 15 nM.

B1: IL-13Rα1-EC (ectodomain of IL-13Rα1 with C-terminal decahistidine tag) (domain or fragment, UniProt P78552 22-343, looked up)
chain: GGGGAAPTETQPPVTNLSVSVENLCTVIWTWNPPEGASSNCSLWYFSHFGDKQDKKIAPETRRSIEVPLNERICLQVGSQCSTNESEKPSILVEKCISPPEGDPESAVTELQCIWHNLSYMKCSWLPGRNTSPDTNYTLYYWHRSLEKIHQCENIFREGQYFGCSFDLTKVKDSSFEQHSVQIMVKDNAGKIKPSFNIVPLTSRVKPDPPHIKNLSFHNDDLYVQWENPQNFISRCLFYEVEVNNSQTETHNVFYVQEAKCENPEFERNVENTSCFMVPGVLPDTLNTVRIRVKTNKLCYEDDKLWSNWSQEMSIGKKRNST
modifications: CoA-Alexa Fluor 568 on the ybbR-tag in the FRET experiments (^AF568IL-13Rα1-EC); else unlabelled
Take B1: the binding result in assay [2] is listed as “binds”.

What is called Kd is the free concentration of one partner at which half of the binding sites on the other are occupied at equilibrium, for simple one-to-one binding.
